Consider 36 variants from the supplement of paper PMC6757056.

± gives the standard deviation of the averaged measurements.

B1: library; a variant is named by its letters at N, in order (parent)
chain: GCUGUCACCGAGAAACUGUGAAGUAUAUCUUAAACCUGGGCACUUAAAAGAUAUAUGGAGUUAGUAGUGCAACCUGCUCGGUCUGAUGAGUCCNNNNNNGGACGAAACAGC

Data set [1] covers variants of B1. As to the kind of experiment: FACS-Seq fitted mean relative fluorescence mCherry/BFP without ligand (log10 relative fluorescence); HEK293T; ligand: cyclic di-GMP (c-di-GMP-II aptamer); higher = higher reporter protein expression. As to conditions: ligand present: no. In short, it runs like this: (§1)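 With or without ligand for 48 h, enriched HEK293T libraries carrying a lentiviral ribozyme-switch mCherry reporter and EF1α-BFP were sorted into 6 mCherry/BFP bins. Bin genomic DNA was amplified by PCR, barcoded and sequenced on MiSeq. Fluorescence was taken from normal fits to the resulting bin counts. Each fitted mean of log10(mCherry/BFP) was scaled to five spiked-in control ribozymes.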

The variants in data set [2] derive from B1. Put plainly: normalized RNA/DNA level without ligand (relative to sTRSVctl = 100) (log10 (% of sTRSVctl)); HEK293T; ligand: cyclic di-GMP (c-di-GMP-II aptamer); higher = less ribozyme self-cleavage, higher mRNA level. The note with it: reporter: mCherry (pCS4076), ligand present: no. A digest of the protocol: (§2)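 HEK293T cells received ligand, where used, 1 h before being transfected with 4 µg per 6-well well of library plasmids encoding reporter-linked ribozyme switches. After 72 h, RNA was extracted with EDTA and sequenced. RNA level was derived from RNA reads per DNA read, normalized to a spiked-in non-cleaving sequence or the top sequences, then scaled and log-transformed. Values were ×100 then log10, the top set was 25 sequences, and the minimum was 100 DNA reads.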

The variants in data set [3] derive from B1. Put plainly: FACS-Seq fitted mean relative fluorescence mCherry/BFP with ligand (log10 relative fluorescence); HEK293T; ligand: cyclic di-GMP (c-di-GMP-II aptamer); ligand concentration (+) FACS-Seq: 1 mM; higher = higher reporter protein expression. As to conditions: ligand present: yes. A digest of the protocol: as §1
In data set [4] the parent is B1. Put plainly: normalized RNA/DNA level with ligand (relative to sTRSVctl = 100) (log10 (% of sTRSVctl)); HEK293T; ligand: cyclic di-GMP (c-di-GMP-II aptamer); ligand concentration (+) RNA-Seq: 1 mM; higher = less ribozyme self-cleavage, higher mRNA level. The note with it: reporter: mCherry (pCS4076), ligand present: yes. A digest of the protocol: as §2

As to ACUAAG, the “FACS-Seq fitted mean (log10)” value in data set [1] is -0.34 ± 0.089; in data set [3], -0.165 ± 0.11. The “normalized RNA/DNA level without ligand (log10)” value in data set [2] is 1.5 ± 0.12. Besides, in data set [4], the “normalized RNA/DNA level with ligand (log10)” value worked out at 1.71 ± 0.026.
On to ACUAAU, for which the “FACS-Seq fitted mean (log10)” value in data set [1] is -0.784 ± 0.024; in data set [3], -0.433 ± 0.047. For the same variant, the “normalized RNA/DNA level without ligand (log10)” value in data set [2] came out at 1.47 ± 0.052. Further, in data set [4], the “normalized RNA/DNA level with ligand (log10)” value was found to be 1.68 ± 0.11.
For ACUUAG, the “FACS-Seq fitted mean (log10)” value in data set [1] is -0.25 ± 0.093; in data set [3], 0.0154 ± 0.058. Further, in data set [2], the “normalized RNA/DNA level without ligand (log10)” value is 1.59 ± 0.024. Moreover, in data set [4], the “normalized RNA/DNA level with ligand (log10)” value was 1.75 ± 0.096.
In the same order, the values of GGAGGC are 0.132 ± 0.076, 0.234 ± 0.067, 1.6 ± 0.065 and 1.79 ± 0.072.
In the same order, the values of AGAUAA are -0.905 ± 0.032, -0.444 ± 0.023, 1.44 ± 0.11 and 1.65 ± 0.11.
For the variant GCUACG, the “FACS-Seq fitted mean (log10)” value is 0.0942 ± 0.14 in data set [1] and 0.353 ± 0.045 in data set [3]. Also, the “normalized RNA/DNA level without ligand (log10)” value in data set [2] was 1.58 ± 0.017. In addition, in data set [4], the “normalized RNA/DNA level with ligand (log10)” value worked out at 1.72 ± 0.1.
The corresponding values for ACUCCC are -0.621 ± 0.049, -0.284 ± 0.087, 1.77 ± 0.049 and 1.87 ± 0.14.
In the same order, the values of CGACUG are -0.0298 ± 0.017, 0.297 ± 0.061, 1.703 ± 0.0006 and 1.83 ± 0.074.
As to CGACUA, the “FACS-Seq fitted mean (log10)” value is -0.6395 ± 0.004 in data set [1] and -0.239 ± 0.0063 in data set [3]. The “normalized RNA/DNA level without ligand (log10)” value in data set [2] came to 1.35 ± 0.17. Besides, in data set [4], the “normalized RNA/DNA level with ligand (log10)” value is 1.48 ± 0.053.
The corresponding values for AGAACU are -0.833 ± 0.11, -0.561 ± 0.02, 1.68 ± 0.031 and 1.82 ± 0.11.
Turning to AGAACA, the entries for the “FACS-Seq fitted mean (log10)” value in data set [1] and in data set [3] were 0.105 ± 0.17 and 0.348 ± 0.0047, respectively. In addition, in data set [2], the “normalized RNA/DNA level without ligand (log10)” value came out at 1.53 ± 0.036. The “normalized RNA/DNA level with ligand (log10)” value in data set [4] amounted to 1.72 ± 0.13.
In the same order, the values of ACGGAG are -0.541 ± 0.036, -0.151 ± 0.062, 1.46 ± 0.12 and 1.61 ± 0.15.
As for ACGGAU, the results for the “FACS-Seq fitted mean (log10)” value in data set [1] and in data set [3] were -0.662 ± 0.045 and -0.374 ± 0.0087, respectively. Moreover, the “normalized RNA/DNA level without ligand (log10)” value in data set [2] is 1.29 ± 0.16. For the same variant, the “normalized RNA/DNA level with ligand (log10)” value in data set [4] amounted to 1.4 ± 0.15.
The corresponding values for GCUGGA are -0.599 ± 0.036, -0.196 ± 0.038, 1.49 ± 0.085 and 1.71 ± 0.099.
The corresponding values for GCUGGU are -0.0949 ± 0.014, 0.119 ± 0.16, 1.6 ± 0.057 and 1.76 ± 0.099.
The corresponding values for UCGUAC are 0.087 ± 0.015, 0.277 ± 0.023, 1.653 ± 0.01 and 1.81 ± 0.14.
As to CGACAA, the “FACS-Seq fitted mean (log10)” value is -0.57 ± 0.068 in data set [1] and -0.273 ± 0.0065 in data set [3]. Besides, in data set [2], the “normalized RNA/DNA level without ligand (log10)” value was 1.29 ± 0.15. Also, in data set [4], the “normalized RNA/DNA level with ligand (log10)” value was 1.54 ± 0.097.
In the same order, the values of GGACCC are 0.129 ± 0.17, 0.32 ± 0.061, 1.86 ± 0.022 and 1.93 ± 0.086.
Regarding ACUACA, the “FACS-Seq fitted mean (log10)” value in data set [1] is -0.0979 ± 0.082; in data set [3], 0.212 ± 0.16. In addition, the “normalized RNA/DNA level without ligand (log10)” value in data set [2] was found to be 1.55 ± 0.03. The “normalized RNA/DNA level with ligand (log10)” value in data set [4] turned out to be 1.73 ± 0.11.
The corresponding values for CCUUAG are -0.183 ± 0.044, 0.161 ± 0.06, 1.64 ± 0.026 and 1.83 ± 0.12.
In the same order, the values of CCUUAA are -0.397 ± 0.009, -0.161 ± 0.043, 1.45 ± 0.092 and 1.63 ± 0.12.
The corresponding values for GCGGAG are -0.301 ± 0.022, -0.076 ± 0.067, 1.53 ± 0.13 and 1.7 ± 0.055.
Turning to GCGGAC, the “FACS-Seq fitted mean (log10)” value in data set [1] was -0.751 ± 0.049; in data set [3] it was -0.511 ± 0.04. Besides, the “normalized RNA/DNA level without ligand (log10)” value in data set [2] came to 1.33 ± 0.11. Besides, the “normalized RNA/DNA level with ligand (log10)” value in data set [4] turned out to be 1.46 ± 0.045.
UGAACG: the results for the “FACS-Seq fitted mean (log10)” value in data set [1] and in data set [3] were -0.401 ± 0.086 and -0.0168 ± 0.22, respectively. In data set [2], the “normalized RNA/DNA level without ligand (log10)” value was found to be 1.74 ± 0.033. In addition, the “normalized RNA/DNA level with ligand (log10)” value in data set [4] is 1.84 ± 0.11.
In the same order, the values of GCGGUU are -0.562 ± 0.021, -0.254 ± 0.0055, 1.6 ± 0.044 and 1.75 ± 0.11.
For GCGUAG, the “FACS-Seq fitted mean (log10)” value is -0.637 ± 0.047 in data set [1] and -0.348 ± 0.095 in data set [3]. Besides, the “normalized RNA/DNA level without ligand (log10)” value in data set [2] was determined as 1.67 ± 0.074. The “normalized RNA/DNA level with ligand (log10)” value in data set [4] is 1.8 ± 0.085.
In the case of GCGUAU, the “FACS-Seq fitted mean (log10)” value in data set [1] is -0.304 ± 0.056; in data set [3], 0.0112 ± 0.012. Moreover, the “normalized RNA/DNA level without ligand (log10)” value in data set [2] was 1.48 ± 0.043. For the same variant, the “normalized RNA/DNA level with ligand (log10)” value in data set [4] came to 1.72 ± 0.12.
For the variant CGAAGA, the “FACS-Seq fitted mean (log10)” value in data set [1] is -0.38091 ± 0.00015; in data set [3], -0.0195 ± 0.04. Further, the “normalized RNA/DNA level without ligand (log10)” value in data set [2] is 1.37 ± 0.096. Also, the “normalized RNA/DNA level with ligand (log10)” value in data set [4] was 1.65 ± 0.075.
As to CCUUUA, the “FACS-Seq fitted mean (log10)” value in data set [1] is -0.242 ± 0.11; in data set [3], 0.149 ± 0.0049. For the same variant, the “normalized RNA/DNA level without ligand (log10)” value in data set [2] is 1.38 ± 0.062. The “normalized RNA/DNA level with ligand (log10)” value in data set [4] is 1.64 ± 0.1.
AGAAGA: the “FACS-Seq fitted mean (log10)” value in data set [1] is -0.764 ± 0.056; in data set [3], -0.515 ± 0.035. The “normalized RNA/DNA level without ligand (log10)” value in data set [2] was determined as 1.36 ± 0.023. For the same variant, the “normalized RNA/DNA level with ligand (log10)” value in data set [4] was determined as 1.57 ± 0.14.
AGAAGG: the “FACS-Seq fitted mean (log10)” value in data set [1] was -0.204 ± 0.074; in data set [3] it was 0.0586 ± 0.061. The “normalized RNA/DNA level without ligand (log10)” value in data set [2] stood at 1.5 ± 0.072. For the same variant, the “normalized RNA/DNA level with ligand (log10)” value in data set [4] turned out to be 1.69 ± 0.064.
On to UGAAUC, for which the “FACS-Seq fitted mean (log10)” value in data set [1] is -0.558 ± 0.0095; in data set [3], -0.4 ± 0.028. The “normalized RNA/DNA level without ligand (log10)” value in data set [2] was 1.72 ± 0.011. The “normalized RNA/DNA level with ligand (log10)” value in data set [4] came to 1.85 ± 0.083.
With UCUUAG, the “FACS-Seq fitted mean (log10)” value in data set [1] worked out at 0.0393 ± 0.27; in data set [3], 0.27 ± 0.049. For the same variant, the “normalized RNA/DNA level without ligand (log10)” value in data set [2] is 1.66 ± 0.05. Moreover, the “normalized RNA/DNA level with ligand (log10)” value in data set [4] was found to be 1.8 ± 0.086.
Turning to CGAAAA, the “FACS-Seq fitted mean (log10)” value in data set [1] is -0.423 ± 0.02; in data set [3] it was -0.315 ± 0.07. Also, the “normalized RNA/DNA level without ligand (log10)” value in data set [2] stood at 1.26 ± 0.084. Also, the “normalized RNA/DNA level with ligand (log10)” value in data set [4] is 1.47 ± 0.1.
As for CGAAAC, the entries for the “FACS-Seq fitted mean (log10)” value in data set [1] and in data set [3] were -0.432 ± 0.051 and -0.267 ± 0.02, respectively. Also, in data set [2], the “normalized RNA/DNA level without ligand (log10)” value turned out to be 1.62 ± 0.048. For the same variant, the “normalized RNA/DNA level with ligand (log10)” value in data set [4] worked out at 1.77 ± 0.097.
On to UCUUGA, for which the “FACS-Seq fitted mean (log10)” value in data set [1] is -0.685 ± 0.031; in data set [3], -0.542 ± 0.027. In data set [2], the “normalized RNA/DNA level without ligand (log10)” value was 1.702 ± 0.0063. The “normalized RNA/DNA level with ligand (log10)” value in data set [4] worked out at 1.84 ± 0.14.
